Reference: patent publication US9959384 (BIONIZ, dated 2018)
No end group written: not given here.

Molecular target: T1, human common gamma chain (γc, CD132) (human, UniProt P31785 23-369)
T1 sequence (looked up): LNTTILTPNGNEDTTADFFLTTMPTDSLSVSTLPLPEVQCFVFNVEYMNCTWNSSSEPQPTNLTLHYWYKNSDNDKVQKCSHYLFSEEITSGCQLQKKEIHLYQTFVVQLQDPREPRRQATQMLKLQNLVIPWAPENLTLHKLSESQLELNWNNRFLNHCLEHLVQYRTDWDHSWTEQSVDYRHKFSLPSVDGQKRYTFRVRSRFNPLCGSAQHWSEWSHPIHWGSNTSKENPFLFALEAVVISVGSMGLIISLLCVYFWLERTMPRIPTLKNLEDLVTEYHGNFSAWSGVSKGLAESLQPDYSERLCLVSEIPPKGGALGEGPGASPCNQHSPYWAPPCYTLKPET
Experiment: cell-based or functional assay

IKEFLQSFIHIVQSIINT (not fully specified) [BNZ132-1 peptide]
IC50 of inhibition of IL-2/IL-15-induced proliferation of ex vivo human T-lymphocytes (IL-2 + IL-15, 0.1 nM each): 0.15 µM
